For this experiment, the target named is wild-type core streptavidin. In words: SDS-PAGE with fluorescence scanning.

We go through one substance from article PMC5399476.

Broadly, the stoichiometry N is the number of molecules, sites or subunits per partner or assembly. The substance “wild-type core streptavidin (natural protein)” gave a stoichiometry N of 4.
